Patent publication US20240269278A1 (NANJING SHUNXIN PHARMACEUTICALS CO LTD OF CHIATAI TIANQING …, published 2024)
Numbering of substitutions follows the chain as printed. Names may count otherwise.

B1: Xi2H8 (antibody, human IgG4 S228P, kappa, V domains shown)
VH: QVQLKESGPGLVAPSQSLSITCTVSGFSLTNYGVHWVRQPPGKGLEWLGIIWAGGSTNYNSALMSRLSISKDNSKSQVFLKMNSLQTDDTAMYYCARDDYASMDYWGQGTSVTVSS
VL: DAFMTQTPLSLPVSLGDQASISCRSSQSLVHSNGNTYLHWYLQKPGQSPKLLIYKVSNRFSGVPDRFSGSGSGTDFTLKISRVEAEDLGVYFCSQSTHVPYTLGGGTKLEIKR
notes: Chimeric: mouse VH on human IgG4 (S228P, EU) constant region, mouse VL on human kappa constant region; made in CHO cells; also called chimeric version of 2H8
B2: Xi16E5 (antibody, human IgG4 S228P, kappa, V domains shown)
VH: EVQLQQSGPELKKPGETVKISCKASGYTFTNYGMNWVKQVPGKGLKWMGWINTNTGEPTYAEEFKGRFAFSLETSARTAFLQINNLKNEDTATYFCTRFSHLRGPMDYWGQGASVTVSS
VL: B1 VL with F3V, N35Y, V83L, Y101P, L103F
notes: Chimeric: mouse VH on human IgG4 (S228P, EU) constant region, mouse VL on human kappa constant region; made in CHO cells; also called chimeric version of 16E5
B3: Xi3F10 (antibody, human IgG4 S228P, kappa, V domains shown)
VH: EVQLQQSVAELMKPGASVKIYCKATGYTFSRYWIEWVKQRPGHGLEWIGEFIPGSDTTNFNEKFKGKATFTAEISSNTAYMQLSSLTSEDSAVYFCARGGLRRMDYWGQGTSVTVSS
VL: DIVMTQTPAIMSASPGEKVTMTCRASSSVSSTYLHWYQQKSGASPKLWIYTTSTLASGVPARFSGSGSGTSYSLTISSVEAEDAATYYCQQFSDSTWTFGGGTKLEIKR
notes: Chimeric: mouse VH on human IgG4 (S228P, EU) constant region, mouse VL on human kappa constant region; made in CHO cells; also called chimeric version of 3F10
B4: hz14A9-2.3 (antibody, human IgG4 S228P, kappa, V domains shown)
VH: QVQLVQSGAEVKKPGASVKVSCKVSGFNIEDDYIEWVRQAPGQGLEWMGRIDPANDKTKYAQKFQGRVTMTGDTSTNTVYMELSSLRSEDTAVYYCARPGLRRYYSMDYWGQGTLVTVSS
VL: DIQMTQSPSSLSASVGDRVTITCKASENVVSYVSWYQQKPGKAPKLLIYGASNRYTGVPSRFIGSGSSTDFTLTISSLQPEDFATYYCGQSYSYPLTFGQGTKLEIKR
B5: hz14A9-2.4 (antibody, human IgG4 S228P, kappa, V domains shown)
VH: B4 VH with A97T
VL: B4 VL
B6: Xi14A9 (antibody, human IgG4 S228P, kappa, V domains shown)
VH: EVQLQQSGAEVARPGASVKLSCTVSGFNIEDDYIEWVKQRPEQGLEWIGRIDPANDKTKYAPKFQDKATITGDTSSNTAYLQLSSLTSEDTAVYYCTRPGLRRYYSMDYWGQGTSVTVSS
VL: NIVLTQSPKSMSMSVGERVTLSCKASENVVSYVSWYQQKPEQSPKLLIYGASNRYTGVPDRFIGSGSSTDFTLIISSFQPEDLADYHCGQSYSYPLTFGAGTKLELKR
notes: Chimeric: mouse VH on human IgG4 (S228P, EU) constant region, mouse VL on human kappa constant region; made in CHO cells; also called chimeric version of 14A9
B7: hz16E5-1.2 (antibody, human IgG4 S228P, kappa)
heavy: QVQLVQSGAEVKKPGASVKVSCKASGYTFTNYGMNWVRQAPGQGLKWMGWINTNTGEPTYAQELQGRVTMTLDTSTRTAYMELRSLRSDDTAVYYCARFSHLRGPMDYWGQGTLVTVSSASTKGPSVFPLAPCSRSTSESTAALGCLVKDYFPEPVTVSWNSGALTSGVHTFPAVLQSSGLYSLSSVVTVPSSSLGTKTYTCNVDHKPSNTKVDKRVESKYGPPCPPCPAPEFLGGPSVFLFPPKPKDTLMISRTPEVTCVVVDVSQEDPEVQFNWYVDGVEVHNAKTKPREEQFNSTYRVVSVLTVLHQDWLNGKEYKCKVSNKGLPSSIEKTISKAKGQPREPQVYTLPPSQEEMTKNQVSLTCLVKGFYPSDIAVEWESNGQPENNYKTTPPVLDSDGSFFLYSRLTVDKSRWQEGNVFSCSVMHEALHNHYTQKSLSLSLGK
light: DIQMTQSPSSLSASVGDRVTITCRSSQSLVHSNGYTYLHWYQQKPGKAPKLLIYKVSNRFSGVPSRFSGSGSGTDFTLTISSLQPEDFATYYCSQSTHVPPTFGQGTKLEIKRTVAAPSVFIFPPSDEQLKSGTASVVCLLNNFYPREAKVQWKVDNALQSGNSQESVTEQDSKDSTYSLSSTLTLSKADYEKHKVYACEVTHQGLSSPVTKSFNRGEC
notes: Humanized 16E5, full-length heavy and light chains, made in CHO cells
B8: hz16E5-3.1 (antibody, human IgG4 S228P, kappa)
heavy: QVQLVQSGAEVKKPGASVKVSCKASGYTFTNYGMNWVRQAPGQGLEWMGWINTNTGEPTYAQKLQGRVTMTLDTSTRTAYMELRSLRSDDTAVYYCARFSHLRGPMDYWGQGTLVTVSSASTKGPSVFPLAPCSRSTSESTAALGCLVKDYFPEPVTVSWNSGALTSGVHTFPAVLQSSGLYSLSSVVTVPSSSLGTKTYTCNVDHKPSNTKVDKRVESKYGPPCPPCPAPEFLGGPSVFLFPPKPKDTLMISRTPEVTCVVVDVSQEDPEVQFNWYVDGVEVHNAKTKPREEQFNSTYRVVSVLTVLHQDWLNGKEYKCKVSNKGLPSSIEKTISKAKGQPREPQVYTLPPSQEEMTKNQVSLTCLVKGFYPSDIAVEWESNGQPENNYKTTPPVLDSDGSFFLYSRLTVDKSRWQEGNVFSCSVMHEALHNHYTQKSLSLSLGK
light: B7 light with I2A
notes: as for B7
B9: hz16E5-3.3 (antibody, human IgG4 S228P, kappa)
heavy: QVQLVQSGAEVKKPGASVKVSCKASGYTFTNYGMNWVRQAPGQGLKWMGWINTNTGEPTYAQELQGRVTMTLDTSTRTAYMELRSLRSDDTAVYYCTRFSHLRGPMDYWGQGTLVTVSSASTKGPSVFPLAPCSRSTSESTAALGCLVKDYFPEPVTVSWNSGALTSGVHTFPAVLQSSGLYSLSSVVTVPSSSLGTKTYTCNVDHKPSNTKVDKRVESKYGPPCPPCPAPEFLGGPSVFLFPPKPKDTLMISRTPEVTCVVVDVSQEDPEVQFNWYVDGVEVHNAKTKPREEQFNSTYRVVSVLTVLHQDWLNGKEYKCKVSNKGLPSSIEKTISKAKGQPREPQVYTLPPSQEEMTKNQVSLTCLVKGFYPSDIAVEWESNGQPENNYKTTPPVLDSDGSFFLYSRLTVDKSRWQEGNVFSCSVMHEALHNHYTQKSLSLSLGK
light: B7 light with I2A
notes: as for B7
B10: hz16E5-3.2 (antibody, human IgG4 S228P, kappa)
heavy: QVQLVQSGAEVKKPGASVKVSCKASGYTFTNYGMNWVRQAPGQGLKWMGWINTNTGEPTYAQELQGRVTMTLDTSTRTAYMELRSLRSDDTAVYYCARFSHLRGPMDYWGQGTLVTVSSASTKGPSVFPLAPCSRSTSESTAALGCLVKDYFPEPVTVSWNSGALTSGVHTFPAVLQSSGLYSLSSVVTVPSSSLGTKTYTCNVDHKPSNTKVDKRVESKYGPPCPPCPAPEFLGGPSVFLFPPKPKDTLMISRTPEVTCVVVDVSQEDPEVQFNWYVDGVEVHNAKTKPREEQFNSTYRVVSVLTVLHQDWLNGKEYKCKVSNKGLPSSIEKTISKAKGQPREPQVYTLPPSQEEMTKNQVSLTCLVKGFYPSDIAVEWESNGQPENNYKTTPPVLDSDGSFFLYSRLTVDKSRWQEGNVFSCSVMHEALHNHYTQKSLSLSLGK
light: B7 light with I2A
notes: as for B7
B11: hz16E5-1.1 (antibody, human IgG4 S228P, kappa)
heavy: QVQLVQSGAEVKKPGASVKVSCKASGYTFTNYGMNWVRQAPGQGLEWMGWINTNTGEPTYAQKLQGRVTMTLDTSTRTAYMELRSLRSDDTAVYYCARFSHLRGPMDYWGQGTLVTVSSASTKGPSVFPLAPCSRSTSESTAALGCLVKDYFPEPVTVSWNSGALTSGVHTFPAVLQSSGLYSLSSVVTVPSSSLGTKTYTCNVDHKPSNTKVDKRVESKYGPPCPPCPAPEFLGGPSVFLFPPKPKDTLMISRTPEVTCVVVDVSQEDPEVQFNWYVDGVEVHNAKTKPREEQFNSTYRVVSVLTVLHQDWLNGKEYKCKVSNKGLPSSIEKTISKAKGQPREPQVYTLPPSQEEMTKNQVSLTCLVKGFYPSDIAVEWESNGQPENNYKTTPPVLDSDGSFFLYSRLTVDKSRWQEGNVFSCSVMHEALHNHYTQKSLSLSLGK
light: B7 light
notes: as for B7
B12: hz16E5-1.3 (antibody, human IgG4 S228P, kappa)
heavy: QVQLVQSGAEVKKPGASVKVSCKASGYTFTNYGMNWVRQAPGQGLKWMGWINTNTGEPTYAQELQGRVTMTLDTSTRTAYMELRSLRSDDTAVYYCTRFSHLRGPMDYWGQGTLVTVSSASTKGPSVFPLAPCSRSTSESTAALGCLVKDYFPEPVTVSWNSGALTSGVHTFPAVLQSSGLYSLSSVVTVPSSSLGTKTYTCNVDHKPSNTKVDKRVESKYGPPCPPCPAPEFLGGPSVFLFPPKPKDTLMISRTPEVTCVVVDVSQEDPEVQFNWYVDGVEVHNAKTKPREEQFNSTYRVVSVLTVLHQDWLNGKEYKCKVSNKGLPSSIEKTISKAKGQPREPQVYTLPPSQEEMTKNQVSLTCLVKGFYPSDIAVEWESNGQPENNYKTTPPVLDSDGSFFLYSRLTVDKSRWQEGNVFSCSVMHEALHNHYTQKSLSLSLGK
light: B7 light
notes: as for B7
B13: hz3F10-3.1 (antibody, human IgG4 S228P, kappa, V domains shown)
VH: QVQLVQSGAEVKKPGSSVKVSCKASGYTFSRYWIEWVRQAPGQGLEWMGEFIPGSDTTNYAQKFQGRVTITADISTSTAYMELSSLRSEDTAVYYCARGGLRRMDYWGQGTLVTVSS
VL: DIQMTQSPSSLSASVGDRVTITCRASSSVSSTYLHWYQQKPGKAPKLLIYTTSTLASGVPSRFSGSGSGTSYTLTISSLQPEDFATYYCQQFSDSTWTFGQGTKLEIKR
notes: Humanized 3F10, full-length heavy and light chains, made in CHO cells
B14: hz3F10-2.1 (antibody, human IgG4 S228P, kappa, V domains shown)
VH: B13 VH
VL: B13 VL with S71D, Y72F, D94E
notes: as for B13
B15: hz3F10-2.2 (antibody, human IgG4 S228P, kappa, V domains shown)
VH: B13 VH with D73E, S77N
VL: B13 VL with S71D, Y72F, D94E
notes: as for B13
B16: hz3F10-6.1 (antibody, human IgG4 S228P, kappa, V domains shown)
VH: B13 VH
VL: B13 VL with L48W, D94E
notes: as for B13
B17: hz3F10-1.2 (antibody, human IgG4 S228P, kappa, V domains shown)
VH: B13 VH with D73E, S77N
VL: B13 VL with S71D, Y72F
notes: as for B13
B18: hz3F10-4.2 (antibody, human IgG4 S228P, kappa, V domains shown)
VH: B13 VH with D73E, S77N
VL: B13 VL with D94E
notes: as for B13
B19: hz3F10-5.1 (antibody, human IgG4 S228P, kappa, V domains shown)
VH: B13 VH
VL: B13 VL with L48W
notes: as for B13
B20: hz3F10-4.1 (antibody, human IgG4 S228P, kappa, V domains shown)
VH: B13 VH
VL: B13 VL with D94E
notes: as for B13
B21: hz3F10-1.1 (antibody, human IgG4 S228P, kappa, V domains shown)
VH: B13 VH
VL: B13 VL with S71D, Y72F
notes: as for B13
B22: hz3F10-6.2 (antibody, human IgG4 S228P, kappa, V domains shown)
VH: B13 VH with D73E, S77N
VL: B13 VL with L48W, D94E
notes: as for B13
B23: hz3F10-5.2 (antibody, human IgG4 S228P, kappa, V domains shown)
VH: B13 VH with D73E, S77N
VL: B13 VL with L48W
notes: as for B13
B24: hz3F10-3.2 (antibody, human IgG4 S228P, kappa, V domains shown)
VH: B13 VH with D73E, S77N
VL: B13 VL
notes: as for B13
B25: Xi2B2 (antibody, human IgG4 S228P, kappa, V domains shown)
VH: EVMLVESGGGLVQPGGSLKLSCAASGFTFSNYYMSWVRQTPEKRLEWVAYISSGGGSTYYPDSVKGRFTISRDNAKNTLYLQMSSLKSEDTAMYYCAWFAYWGQGTLVTVSA
VL: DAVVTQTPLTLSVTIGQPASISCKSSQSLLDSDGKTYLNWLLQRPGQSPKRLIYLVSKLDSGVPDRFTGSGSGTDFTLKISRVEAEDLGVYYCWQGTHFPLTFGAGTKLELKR
notes: Chimeric: mouse VH on human IgG4 (S228P, EU) constant region, mouse VL on human kappa constant region; made in CHO cells; also called chimeric version of 2B2

What follows are binders tested against T1, human CD47 protein, His Tag (ACRObiosystems, Cat. No. CD7-H5227) (human, UniProt Q08722 19-139) (assay: Biacore SPR, antibody captured on CM5 chip, CD47-His protein, 25 C).
T1 construct: Bought protein; also called hCD47-His Tag protein; not shown: His tag
T1 sequence (Q08722 19-139 limits assumed): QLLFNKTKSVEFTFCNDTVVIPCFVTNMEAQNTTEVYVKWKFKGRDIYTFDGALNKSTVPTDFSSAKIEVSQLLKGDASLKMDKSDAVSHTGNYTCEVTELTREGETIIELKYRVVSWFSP
Method: (§1) The equilibrium dissociation constants KD (in unit M) were obtained by measuring the binding kinetics of the human CD47 protein (human CD47 protein, His Tag; ACRObiosystems, Cat. No. CD7-H5227) and cynomolgus monkey CD47 protein (cynomolgus/rhesus macaque CD47 protein, His Tag; ACRObiosystems, Cat. No. CD7-C52H1) to anti-CD47 antibodies (chimeric or humanized) using Biacore. The Biacore analysis was performed at 25° C. and data were recorded at a rate of 1 Hz.
(§2) At the beginning of each cycle, the diluted test antibody (1.5 μg/mL) was injected onto the experimental flowcell and maintained for 1 min to be captured.

| Kd [nM] | Binder |
| --- | --- |
| 0.35 | B1 |
| 9.06 | B2 |
| 0.767 | B3 |
| 0.204 | B4 |
| 8.55 | B5 |
| 2.35 | B6 |
| 9.31 | B7 |
| 6.28 | B8 |
| 7.13 | B9 |
| 17.1 | B10 |
| 18.9 | B11 |
| 15.3 | B12 |
| 1.53 | B13 |
| 0.836 | B14 |
| 0.779 | B15 |
| 0.592 | B16 |
| 0.904 | B17 |
| 1.34 | B18 |
| 0.96 | B19 |
| 1.42 | B20 |
| 0.946 | B21 |
| 0.765 | B22 |
| 0.896 | B23 |
| 1.15 | B24 |
| 7.48 | B25 |

These binders were tested against T2, cynomolgus/rhesus macaque CD47 protein, His Tag (ACRObiosystems, Cat. No. CD7-C52H1) (cynomolgus monkey, UniProt A0A2K5X523 19-139) in the same assay as above.
T2 construct: Bought protein; also called Cynomolgus monkey CD47 protein; not shown: His tag
Method: as §1, §2

| Kd [nM] | Binder |
| --- | --- |
| 1.25 | B1 |
| 2.92 | B2 |
| 1.04 | B3 |
| 3.07 | B4 |
| 2 | B5 |
| 1.58 | B6 |
| 2.26 | B7 |
| 3.28 | B8 |
| 1.87 | B9 |
| 3.1 | B10 |
| 4.77 | B11 |
| 2.73 | B12 |
| 1.17 | B14 |
| 1.14 | B15 |
| 2.47 | B16 |
| 1.33 | B17 |
| 1.86 | B18 |
| 1.3 | B19 |
| 1.62 | B20 |
| 1.31 | B21 |
| 1.15 | B22 |
| 1.4 | B23 |
| 1.47 | B24 |
| 1.2 | B25 |
